Numbering of substitutions follows the chain as printed.

The target in the test is SARS-COV-2 RBD extracellular domain expressed with a C-terminal mouse IgG2a (SARS-CoV-2).

B1: mAb10955 (antibody, V domains shown)
VH: EVQLVESGGGLVQPGGSLRVSCAASGFTVSRNYMSWVRQAPGKGLEWVSVIYSGGSTFYADSVKGRFTISRDNSKNTLYLQMNSLRAEDTAIYYCARYIPRFDPWGQGTLVTVSS
VL: DIQMTQSPSSLSASVGDRVTITCQASQDISNYLNWFQQKPGRAPKLLIYDASNLETGVPSRFSGSGSGTDFTFTISSLQPEDIATYYCQQYDNLPITFGQGTRLEIKR
By Kd is commonly meant the free concentration of one partner at which half of the binding sites on the other are occupied at equilibrium, for simple one-to-one binding. High values mean a looser complex, low ones a tighter complex. The t½ is the time needed for the level to fall by half in the phase considered. For B1, the Kd was determined as 0.0592 nM and the t½ worked out at 8.23 h.

B2: mAb10954 (antibody, V domains shown)
VH: EVQLVESGGGLVQPGGSLRLSCAASGITVSSNYMSWVRQAPGKGLEWVSLIYSGGSTYYADSVKGRFTISRDNSKNTLYLQMNSLRVEDTAVYYCARDHGMAAAGYNYWGQGTLVTVSS
VL: DIQMTQSPSSLSASVGDRVTITCQASQDINKYLNWYQQKPGKAPKLLIYDASNLETGVPSRFSGSGSGTDFTFTINSLQPEDFATYFCQQYDNLPPAFGQGTKVEIKR
On to B2, for which the dissociation constant Kd was at most 0.0173 nM and the t½ was at least 19.2 h.

B3: mAb10956 (antibody, V domains shown)
VH: EVQLVESGGGLVQPGGSLRLSCAASGLTVSSNYMSWVRQAPGKGLEWVSVIYSGGSTFYADSVKGRFTISRDNSKNTLYLQMNSLRAEDTAVYYCARDLIKYGMDVWGQGTTVTVSS
VL: not shown
For the molecule B3, the Kd was 0.395 nM and the t½ was 1.3 h.

B4: mAb10957 (antibody, V domains shown)
VH: B3 VH with L27V, Y79F, A87I, I100G, K101P
VL: DIQLTQSPSFLSASVGDRVTITCRASQGISSYLAWYQQKPGKAPKLLIYAASTLQSGVPSRFSGSGSGTQFILTISSLQPEDFATYYCQQLNSYPGFTFGPGTKVDIKR
B4 registered a Kd of at most 0.0279 nM and a t½ of at least 19.2 h.

The record behind these values is patent US20260234738A1 (Regeneron, published 2026).
